The target in test [1] is SARS-CoV-2 Spike (SARS-CoV-2), P0DTC2. Kind of test: inhibitor screening kit; ACE2:SARS-CoV-2 Spike (Example 4 assay).
Test [2] shares this target. Kind of test: inhibitor screening kit; SARS-CoV-2 Spike:ACE2 (Example 3 assay).
In test [3] the target is ACE2, Q9BYF1.
For test [4], the target named is SARS-CoV-2 Spike (SARS-CoV-2), P0DTC2.
Test [5] has the same target. Put plainly: SARS-CoV-2 Spike:ACE2 inhibitor screening kit (Example 4).
For test [6] the target is unchanged. Put plainly: ACE2:SARS-CoV-2 Spike kit, ACE2 on plate, Spike-Fc added; competitor ACE2.
Test [7] has the same target. This is another data set of the same source.
Test [8] shares this target. Put plainly: ACE2:SARS-CoV-2 Spike inhibitor screening kit (Example 3).
Test [9] shares this target. Put plainly: SARS-CoV-2 Spike:ACE2 inhibitor screening kit (Example 4); Table 7 prints 38.6.
Test [10] concerns the target ACE2, Q9BYF1. Kind of test: inhibitor screening kit, ADGN-106 nanoparticles (Example 6, section A).
Test [11] has as its target ACE2, Q9BYF1. Kind of test: inhibitor screening kit, ADGN-106 nanoparticles (Example 6, section B).

The source of these data is US20230304010A1, “COMPOSITIONS AND METHODS FOR TREATING VIRAL INFECTIONS” (priority 2020, published 2023).

“And” between values parts separate entries of the source, which are not always exact repeats. Identical values can stand only once. Like-named read-outs stand apart in the source and are kept apart here.

ACE2, Q9BYF1, sequence (Q9BYF1 18-740 limits assumed): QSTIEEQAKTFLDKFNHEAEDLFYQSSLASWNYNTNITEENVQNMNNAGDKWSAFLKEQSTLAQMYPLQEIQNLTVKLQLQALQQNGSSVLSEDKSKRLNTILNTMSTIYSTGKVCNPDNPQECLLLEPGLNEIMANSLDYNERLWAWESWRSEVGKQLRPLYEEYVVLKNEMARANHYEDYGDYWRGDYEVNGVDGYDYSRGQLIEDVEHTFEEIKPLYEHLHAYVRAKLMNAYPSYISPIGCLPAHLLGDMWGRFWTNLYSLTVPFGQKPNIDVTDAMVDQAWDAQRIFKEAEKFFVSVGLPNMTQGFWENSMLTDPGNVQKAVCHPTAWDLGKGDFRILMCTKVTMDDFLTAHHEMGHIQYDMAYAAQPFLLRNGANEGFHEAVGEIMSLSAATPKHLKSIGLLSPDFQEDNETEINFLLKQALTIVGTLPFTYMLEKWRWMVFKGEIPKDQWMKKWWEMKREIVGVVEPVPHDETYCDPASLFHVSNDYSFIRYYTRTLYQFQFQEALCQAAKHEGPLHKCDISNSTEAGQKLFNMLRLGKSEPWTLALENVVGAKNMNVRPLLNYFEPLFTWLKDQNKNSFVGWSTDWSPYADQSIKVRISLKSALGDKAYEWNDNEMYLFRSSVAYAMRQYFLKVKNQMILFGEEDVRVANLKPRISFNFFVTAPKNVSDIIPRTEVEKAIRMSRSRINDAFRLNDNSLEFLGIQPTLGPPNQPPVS

Broadly, the IC50 is the concentration needed to halve the response being measured. With TAWDLGKGDFRILWRALWRLWRSLWRLLWK (modifications not checked) [Seq36 (LNCOV-28)], the IC50 in [1] and in [2] was above 1000 nM throughout.

B1: Seq21 (LNCOV-13)/ADGN-106 nanoparticle complex (peptide)
peptide 1: GFQPTNGVKLWRALWRLWRSLWRLLWK
peptide 2: LWRALWRLWRSLWRLLWK
modifications: not checked
In the case of B1, the 50% inhibitory concentration (IC50) in the test with ACE2, Q9BYF1 [3] is 5.2 nM and 11.2 nM.

B2: Seq32 (LNCOV-21)/ADGN-106 nanoparticle complex (protein)
peptide 1: IEEQAKTFLDKFNHEAEDLFYQSLWRALWRLWRSLWRLLWK
peptide 2: LWRALWRLWRSLWRLLWK
modifications: not checked
Consider B2, for which the half-inhibitory concentration (IC50) in test [4] was 24.5 nM and 7.2 nM.
In the case of KTFLDKFNHEAEDLF (modifications not checked) [Seq25 (LNCOV-33)], the 50% inhibitory concentration (IC50) in test [1] is 1900 nM; in [2], 2500 nM.
The molecule EQAKTFLDKFNHEAEDLFLWRALWRLWRSLWRLLWK (modifications not checked) [Seq33 (LNCOV-18)] came in with a fold more potent than SBP-1 coupled to ADGN-106 in test [5] of 8 fold. This molecule also registered a fold more potent than free SBP-1 in test [5] of 14 fold. Also, the IC50 was determined as 18.4 nM in test [6], 18.4 nM in [1] and 178 nM in test [2].
As to KTFLDKFNHEAEDLFYS (modifications not checked) [Seq26 (LNCOV-34)], the IC50 in [1] came out at 2100 nM; in test [2], 1900 nM.
With EQAKTFLDKFNHEAEDLF (modifications not checked) [Seq24 (LNCOV-19)], the IC50 in test [7] was 570000 nM; in test [5], 570 nM; in test [2] it was 1300 nM.

B3: Seq38 (LNCOV-30)/ADGN-106 nanoparticle complex (protein)
peptide 1: NMTQGFWENPGGPTAWDLGKLWRALWRLWRSLWRLLWK
peptide 2: LWRALWRLWRSLWRLLWK
modifications: not checked
On to B3, for which the half-maximal inhibitory concentration (IC50) in test [4] was 91.4 nM and 49.7 nM.
Take NMTQGFWENSMLTDLWRALWRLWRSLWRLLWK (modifications not checked) [Seq37 (LNCOV-29)]: the 50% inhibitory concentration (IC50) in test [1] is 645 nM; in test [2], above 1000 nM.
Take NMTQGFWENSMLTD (modifications not checked) [Seq30 (LNCOV-36)]: the concentration for half-maximal inhibition (IC50) in [1] and in test [2] was above 10000 nM in each case.
Take KTFLDKFNHEAEDLFLWRALWRLWRSLWRLLWK (modifications not checked) [Seq34 (LNCOV-25)]: the IC50 in test [1] and in test [2] was above 1000 nM each time.
Consider TAWDLGKGDFRI (modifications not checked) [Seq29 (LNCOV-35)], for which the half-maximal inhibitory concentration (IC50) in [1] and in test [2] was above 10000 nM throughout.
Regarding NMTQGFWENPGGPTAWDLGK (modifications not checked) [Seq31 (LNCOV-37)], the 50% inhibitory concentration (IC50) is 25000 nM in [8], 25000 nM in test [5], above 10000 nM in test [1] and above 10000 nM in test [2].
Consider KTFLDKFNHEAEDLFPGPKWSAFLKEQSTLAQMYG (modifications not checked) [Seq28 (LNCOV-20)], for which the IC50 in test [8] was found to be 50 nM; in test [6] it was 38.6 nM; in [1] it was 38.6 nM; in test [2], 58.7 nM; in test [9], 38.5 nM. Also, the fold more potent than SBP-1 coupled to ADGN-106 was determined as 6 fold in test [8] and 3.5 fold in test [5]. The fold more potent than free SBP-1 came to 15 fold in test [8] and 7 fold in [5].

B4: Seq39 (LNCOV-31) (peptide)
peptide: EQAKTFLDKFNHEAEDLFPKWSAFLKEQSTLAQMYGLWRALWRLWRSLWRLLWK
modifications: not checked
For the molecule B4, the fold increase of efficiency over the uncoupled peptide (Seq27/Seq28) in test [8] was determined as 1.4 fold. The figures for the concentration for half-maximal inhibition (IC50) in test [1] and in test [2] were 68.4 nM and 55.2 nM, respectively.

B5: Seq35 (LNCOV-26)/ADGN-106 nanoparticle complex (protein)
peptide 1: KTFLDKFNHEAEDLFYSLWRALWRLWRSLWRLLWK
peptide 2: LWRALWRLWRSLWRLLWK
modifications: not checked
Consider B5, for which the IC50 in [4] was 217 nM and 55.4 nM.
As to KTFLDKFNHEAEDLFYSLWRALWRLWRSLWRLLWK (modifications not checked) [Seq35 (LNCOV-26)], the figures for the IC50 in test [1] and in [2] were 728 nM and 546 nM, respectively.

B6: Seq17 (LNCOV-15)/ADGN-106 nanoparticle complex (peptide)
peptide 1: NGVEGFNKLWRALWRLWRSLWRLLWK
peptide 2: LWRALWRLWRSLWRLLWK
modifications: not checked
Turning to B6, in the test with ACE2, Q9BYF1 [3], the IC50 is 3.4 nM and 2.7 nM. Further, in the test with ACE2, Q9BYF1 [10], the fold more potent than SBP-1-ADGN-106/ADGN-106 complex was determined as 6 fold and the fold more potent than SBP-1 peptide/ADGN-106 complex was 40 fold. Also, in the test with ACE2, Q9BYF1 [11], the fold more potent than SBP-1-ADGN-106/ADGN-106 complex came to 4 fold and the fold more potent than SBP-1 peptide/ADGN-106 complex is 35 fold.

B7: Seq20 (LNCOV-24)/ADGN-106 nanoparticle complex (peptide)
peptide 1: SYGFQPTNGVLWRALWRLWRSLWRLLWK
peptide 2: LWRALWRLWRSLWRLLWK
modifications: not checked
In the case of B7, the half-inhibitory concentration (IC50) with ACE2, Q9BYF1 [3] was 3.7 nM and 8.7 nM. In the test with ACE2, Q9BYF1 [10], this molecule gave a fold more potent than SBP-1-ADGN-106/ADGN-106 complex of 6 fold and a fold more potent than SBP-1 peptide/ADGN-106 complex of 40 fold.

B8: Seq40 (LNCOV-32) (peptide)
peptide: KTFLDKFNHEAEDLFPKWSAFLKEQSTLAQMYGLWRALWRLWRSLWRLLWK
modifications: not checked
As for B8, in test [8], the fold increase of efficiency over the uncoupled peptide (Seq27/Seq28) came out at 1.4 fold. Also, the figures for the IC50 in [1] and in test [2] were 85.4 nM and 45.1 nM, respectively.
With EQAKTFLDKFNHEAEDLFPKWSAFLKEQSTLAQMYG (modifications not checked) [Seq27 (LNCOV-27)], the values for the half-inhibitory concentration (IC50) in [8], in test [1] and in test [2] were 50 nM, 37.4 nM and 66.1 nM, respectively. Moreover, the fold more potent than SBP-1 coupled to ADGN-106 in test [8] came out at 6 fold; in [5] it was 3.5 fold. Further, the fold more potent than free SBP-1 in [8] amounted to 15 fold; in test [5] it was 7 fold.
